For 3 substances, Kd, koff and kon results are on record in PMC4814101.

Assay [1] addresses Bothropstoxin I (Bothrops jararacussu) (UniProt Q90249). Kind of assay: SPR; Biacore T200; […]; 30 μL/min, 37°C; running buffer 0.1 M phosphate, 27 mM KCl, 1.37 M NaCl, pH 7.4; 1:1 Langmuir model. (Surface plasmon resonance follows binding to a sensor surface in real time, without labels.)
Assay [2] has as its target Bothropstoxin II (Bothrops jararacussu) (UniProt P45881). The assay is described as above.
Sequence of UniProt P45881 (P45881 17-138): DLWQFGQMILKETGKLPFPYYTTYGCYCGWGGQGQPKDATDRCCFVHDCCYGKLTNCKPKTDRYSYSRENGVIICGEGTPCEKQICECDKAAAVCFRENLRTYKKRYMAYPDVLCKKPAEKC

Sequence of UniProt Q90249 (Q90249 17-137): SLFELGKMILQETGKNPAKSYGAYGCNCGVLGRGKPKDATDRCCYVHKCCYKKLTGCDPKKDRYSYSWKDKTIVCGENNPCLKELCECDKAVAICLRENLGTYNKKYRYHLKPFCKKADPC

In the case of VHH KC329718, in assay [1], the Kd (as a rule, the equilibrium constant for the complex coming apart) came out at 53.9 nM; the koff – broadly, the rate constant with which the complex falls apart – worked out at 0.0346 s⁻¹; the kon (usually the rate constant with which the complex forms) worked out at 642000 M⁻¹ s⁻¹. In assay [2], this substance yielded a Kd of 770 nM, a koff of 0.258 s⁻¹ and a kon of 335000 M⁻¹ s⁻¹.

Regarding VHH KF498607, in assay [1], the Kd turned out to be 629 nM, the koff came to 0.162 s⁻¹ and the kon was found to be 257000 M⁻¹ s⁻¹. Further, in assay [2], the koff came to 0.516 s⁻¹ and the kon was found to be 184000 M⁻¹ s⁻¹.

In assay [1], VHH KF498608 gave a Kd of 668 nM, a koff of 0.119 s⁻¹ and a kon of 179000 M⁻¹ s⁻¹. In assay [2], this substance showed a Kd of 42.7 nM and a koff of 0.0302 s⁻¹.
